Like-named read-outs stand apart in the source and are kept apart here.
B1: 3'-blocked sym/sub RNA (after 3'-dAMP incorporation) (dsRNA)
RNA 1: GCAUGGGCCCA
RNA 2: GCAUGGGCCCA
modifications: 3'-terminal 3'-deoxyadenosine (A11)
B2: sym/sub RNA (dsRNA)
RNA 1: GCAUGGGCCC
RNA 2: GCAUGGGCCC

Columns and labels:
[1] = target: T1, 3Dpol WT (RNA-dependent RNA polymerase) (poliovirus, UniProt P03300 1749-2209); experiment: NMR
[2] = target: T1, 3Dpol WT (RNA-dependent RNA polymerase); experiment: NMR; remark: listed apart in the source

T1 sequence (P03300 1749-2209): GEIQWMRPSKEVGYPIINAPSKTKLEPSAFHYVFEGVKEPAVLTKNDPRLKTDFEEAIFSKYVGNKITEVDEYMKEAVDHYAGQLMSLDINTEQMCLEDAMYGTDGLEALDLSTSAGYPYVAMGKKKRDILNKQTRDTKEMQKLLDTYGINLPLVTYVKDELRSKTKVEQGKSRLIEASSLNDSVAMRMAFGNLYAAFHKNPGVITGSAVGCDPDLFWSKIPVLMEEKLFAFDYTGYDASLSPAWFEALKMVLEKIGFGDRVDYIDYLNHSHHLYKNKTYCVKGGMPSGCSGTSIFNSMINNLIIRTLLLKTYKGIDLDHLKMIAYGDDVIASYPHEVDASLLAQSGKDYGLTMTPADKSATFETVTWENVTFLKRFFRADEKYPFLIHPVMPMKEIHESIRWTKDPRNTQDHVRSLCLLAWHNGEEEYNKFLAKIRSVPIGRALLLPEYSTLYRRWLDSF

Binder	binding result [1]	binding result [2]
B1	binds	–
B2	–	binds

— paper PMC2989882
